Square brackets hold non-standard residues; d marks the D form. Ends that are not written are not given here. pT = C[C@@H](OP(=O)(O)O)[C@H](N)C(=O)O; pS = N[C@@H](COP(=O)(O)O)C(=O)O
Molecular target: GST-Fbw7 (residues 263 to 707)-Skp1 complex, Q969H0
Assay: AlphaScreen or HTRF

IC50: 9.8 nM
Binder: EDIWKKFELLP[pT]PPL[pS]PSRR [Myc T58 degron peptide, diphosphorylated (pT58/pS62)]

Reference: PMC8797792
